The record followed here is article PMC9638933.

In data set [1] the target is Kumin (M. tuberculosis Ku without the extended C-terminus) (M. tuberculosis). In words: BLI; Octet RED96, 37°C, 1000 rpm; biotinylated Ku (25 ug/ml) loaded on streptavidin biosensors; LigD, LIG or POL as analyte (12.5 ug/ml), 300 s association, 300 s dissociation; 1x kinetics buffer (0.1% BSA, 0.02% Tween-20, 0.05% sodium azide in PBS); grouped global fit. For orientation: In BLI a coated tip is dipped into the sample, and binding shifts an interference pattern.

The target is the same in data set [2]. Kind of data set: SEC-MALS; 50 uM protein in 50 mM HEPES pH 8.0, 1 mM EDTA, 200 mM NaCl; Superdex 200 Increase 10/300 GL; MiniDAWN and Optilab. A general note: Size exclusion chromatography separates by hydrodynamic size, large species first.
Data set [3] concerns the molecule itself. Kind of data set: SEC-MALS; 50 uM protein; 50 mM HEPES pH 8.0, 1 mM EDTA, 200 mM NaCl; Superdex 200 Increase 10/300 GL.
Data set [4] addresses T1, KuWT (Mycobacterium tuberculosis, UniProt P9WKD9 1-273).
T1 sequence: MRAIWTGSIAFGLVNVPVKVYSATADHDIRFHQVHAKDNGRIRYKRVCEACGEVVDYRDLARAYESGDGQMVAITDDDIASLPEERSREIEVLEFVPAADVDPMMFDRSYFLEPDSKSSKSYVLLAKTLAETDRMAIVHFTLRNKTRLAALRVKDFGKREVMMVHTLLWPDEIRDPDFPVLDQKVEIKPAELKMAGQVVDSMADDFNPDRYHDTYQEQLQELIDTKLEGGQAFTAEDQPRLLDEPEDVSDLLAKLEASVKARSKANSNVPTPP
Kind of data set: EMSA; 5 mM Mg2+; EMSA: 50 mM Tris-HCl pH 8.0, 50 mM NaCl, 1 mM DTT, 5 mM MgCl2, 4% glycerol, 0.025 mg/ml BSA, 10 nM DNA, 30 C 20 min; FP: 10 mM Tris-HCl pH 8, 10 mM NaCl, 10% glycerol, 1 mM TCEP, 50 nM DNA, 30 C; ternary EMSA: 20 mM Tris-HCl pH 8.0, 5 mM MgCl2, 5% glycerol, 37 C; bridging: 20 mM Tris-HCl pH 7.5, 50 mM KCl, 5 mM EDTA, 1 mM DTT, 5% glycerol, 40 ug/ml BSA, room temperature. To be noted: protein: recombinant; tags: His (Ni-NTA purified; pMCSG7); chain copies: 2; label: 5' 6-FAM on strand 1; blunt.

The next data set deals with LigD (UniProt P9WNV3 1-759). Kind of data set: fluorescence polarization; EMSA: 50 mM Tris-HCl pH 8.0, 50 mM NaCl, 1 mM DTT, 5 mM MgCl2, 4% glycerol, 0.025 mg/ml BSA, 10 nM DNA, 30 C 20 min; FP: 10 mM Tris-HCl pH 8, 10 mM NaCl, 10% glycerol, 1 mM TCEP, 50 nM DNA, 30 C; ternary EMSA: 20 mM Tris-HCl pH 8.0, 5 mM MgCl2, 5% glycerol, 37 C; bridging: 20 mM Tris-HCl pH 7.5, 50 mM KCl, 5 mM EDTA, 1 mM DTT, 5% glycerol, 40 ug/ml BSA, room temperature. The note with it: protein: recombinant; tags: His (Ni-NTA purified; pMCSG7); label: 5' 6-FAM on strand 1; blunt.

Data set [5] deals with the molecule itself. Kind of data set: SEC-MALS; 50 uM protein in 50 mM HEPES pH 8.0, 1 mM EDTA, 200 mM NaCl; Superdex 200 Increase 10/300 GL; MiniDAWN and Optilab.
In data set [6] the target is T2, LigD (wildtype), Mycobacterium tuberculosis (M. tuberculosis, UniProt P9WNV3 1-759).
T2 construct: The His tag is TEV-cleavable; also called wildtype LigD
In words: BLI; Octet RED96, 37°C, 1000 rpm; biotinylated Ku (25 ug/ml) loaded on streptavidin biosensors; LigD, LIG or POL as analyte (12.5 ug/ml), 300 s association, 300 s dissociation; 1x kinetics buffer (0.1% BSA, 0.02% Tween-20, 0.05% sodium azide in PBS); grouped global fit. To be noted: both partners purified.

In data set [7] the target is T3, Kucore (Mycobacterium tuberculosis, UniProt P9WKD9 1-238).
T3 sequence: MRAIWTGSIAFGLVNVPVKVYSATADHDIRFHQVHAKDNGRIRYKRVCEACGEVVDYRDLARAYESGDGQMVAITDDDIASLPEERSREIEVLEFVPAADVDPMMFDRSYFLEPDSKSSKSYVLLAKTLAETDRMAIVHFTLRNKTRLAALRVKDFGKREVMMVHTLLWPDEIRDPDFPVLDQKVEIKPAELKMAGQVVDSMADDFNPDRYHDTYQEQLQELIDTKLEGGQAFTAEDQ
In words: EMSA; 5 mM Mg2+; EMSA: 50 mM Tris-HCl pH 8.0, 50 mM NaCl, 1 mM DTT, 5 mM MgCl2, 4% glycerol, 0.025 mg/ml BSA, 10 nM DNA, 30 C 20 min; FP: 10 mM Tris-HCl pH 8, 10 mM NaCl, 10% glycerol, 1 mM TCEP, 50 nM DNA, 30 C; ternary EMSA: 20 mM Tris-HCl pH 8.0, 5 mM MgCl2, 5% glycerol, 37 C; bridging: 20 mM Tris-HCl pH 7.5, 50 mM KCl, 5 mM EDTA, 1 mM DTT, 5% glycerol, 40 ug/ml BSA, room temperature. To be noted: protein: recombinant; tags: His (Ni-NTA purified; pMCSG7); chain copies: 2; label: 5' 6-FAM on strand 1; blunt. In general terms: Mobility shift assays separate free from complexed probe on a gel.

In data set [8] the target is T4, Kumin (Mycobacterium tuberculosis, UniProt P9WKD9 1-259).
T4 sequence: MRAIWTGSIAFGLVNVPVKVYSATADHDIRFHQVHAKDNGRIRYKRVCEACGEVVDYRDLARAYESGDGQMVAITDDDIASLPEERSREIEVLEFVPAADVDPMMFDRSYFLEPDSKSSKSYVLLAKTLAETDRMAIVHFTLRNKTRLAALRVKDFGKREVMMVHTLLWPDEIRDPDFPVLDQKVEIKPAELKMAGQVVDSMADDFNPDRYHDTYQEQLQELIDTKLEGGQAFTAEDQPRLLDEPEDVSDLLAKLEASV
The description is as above. To be noted: protein: recombinant; tags: His (Ni-NTA purified; pMCSG7); chain copies: 2; label: 5' 6-FAM on strand 1; blunt.

The target in data set [9] is T3, Kucore. Kind of data set: EMSA; EMSA: 50 mM Tris-HCl pH 8.0, 50 mM NaCl, 1 mM DTT, 5 mM MgCl2, 4% glycerol, 0.025 mg/ml BSA, 10 nM DNA, 30 C 20 min; FP: 10 mM Tris-HCl pH 8, 10 mM NaCl, 10% glycerol, 1 mM TCEP, 50 nM DNA, 30 C; ternary EMSA: 20 mM Tris-HCl pH 8.0, 5 mM MgCl2, 5% glycerol, 37 C; bridging: 20 mM Tris-HCl pH 7.5, 50 mM KCl, 5 mM EDTA, 1 mM DTT, 5% glycerol, 40 ug/ml BSA, room temperature. The note with it: protein: recombinant; tags: His (Ni-NTA purified; pMCSG7); chain copies: 2; label: 5' 6-FAM on strand 1; blunt.

The target of data set [10] is T4, Kumin. The data set is described as above. To be noted: protein: recombinant; tags: His (Ni-NTA purified; pMCSG7); chain copies: 2; label: 5' 6-FAM on strand 1; blunt.
Data set [11] has as its target T1, KuWT. The description is as above. The note with it: protein: recombinant; tags: His (Ni-NTA purified; pMCSG7); chain copies: 2; label: 5' 6-FAM on strand 1; blunt.

LigD, sequence (P9WNV3 whole entry): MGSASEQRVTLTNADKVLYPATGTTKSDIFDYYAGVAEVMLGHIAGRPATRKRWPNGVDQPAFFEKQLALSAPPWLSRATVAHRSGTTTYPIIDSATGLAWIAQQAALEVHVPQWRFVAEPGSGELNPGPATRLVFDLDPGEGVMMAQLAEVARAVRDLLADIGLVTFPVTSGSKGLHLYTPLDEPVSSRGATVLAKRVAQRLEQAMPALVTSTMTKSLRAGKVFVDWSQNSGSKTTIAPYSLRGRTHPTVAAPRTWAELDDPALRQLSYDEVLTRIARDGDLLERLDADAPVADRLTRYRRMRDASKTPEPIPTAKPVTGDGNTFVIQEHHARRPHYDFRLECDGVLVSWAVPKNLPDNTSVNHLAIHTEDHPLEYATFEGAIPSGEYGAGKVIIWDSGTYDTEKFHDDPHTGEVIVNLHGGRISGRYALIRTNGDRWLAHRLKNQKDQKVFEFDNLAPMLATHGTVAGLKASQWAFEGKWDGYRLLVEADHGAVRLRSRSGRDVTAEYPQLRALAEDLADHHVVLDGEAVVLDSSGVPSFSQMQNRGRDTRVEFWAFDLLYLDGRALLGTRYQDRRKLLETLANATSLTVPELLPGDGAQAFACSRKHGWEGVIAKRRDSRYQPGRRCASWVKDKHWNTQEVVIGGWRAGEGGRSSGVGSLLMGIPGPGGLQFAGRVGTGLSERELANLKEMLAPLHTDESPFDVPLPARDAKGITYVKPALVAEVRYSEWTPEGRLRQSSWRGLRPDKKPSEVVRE
T2 sequence (P9WNV3 whole entry): as above

For orientation: Kd means the concentration at which binding is half-saturated. Molecule “LigD (wildtype), Mycobacterium tuberculosis (from UniProt P9WNV3 1-759) (enzyme)” showed a Kd in data set [1] of 0.288 µM. A word on the stoichiometry N: it is the number of molecules, sites or subunits per partner or assembly. “Kumin (M. tuberculosis Ku without the extended C-terminus) (domain or fragment)” yielded a stoichiometry N in data set [2] of 2.

B1: Mycobacterium tuberculosis Kumin (extended C-terminus removed) (domain or fragment)
chain: MRAIWTGSIAFGLVNVPVKVYSATADHDIRFHQVHAKDNGRIRYKRVCEACGEVVDYRDLARAYESGDGQMVAITDDDIASLPEERSREIEVLEFVPAADVDPMMFDRSYFLEPDSKSSKSYVLLAKTLAETDRMAIVHFTLRNKTRLAALRVKDFGKREVMMVHTLLWPDEIRDPDFPVLDQKVEIKPAELKMAGQVVDSMADDFNPDRYHDTYQEQLQELIDTKLEGGQAFTAEDQPRLLDEPEDVSDLLAKLEASV
modifications: in BLI only: biotin (NHS-LC-Biotin) on K19, K37, K45, K117, K120, K127, K154, K184, K188, K193, K226, K254
notes: Ku of M. tuberculosis, UniProt P9WKD9, residues 1-259 (core domain and minimal C-terminal region); The His tag is TEV-cleavable (pMCSG7) and no cleavage is described; The protein was not biotinylated for SEC-MALS
With B1, in data set [3], the “stoichiometry N” value was 2.

B2: Mycobacterium tuberculosis Ku, wildtype (natural protein)
chain: MRAIWTGSIAFGLVNVPVKVYSATADHDIRFHQVHAKDNGRIRYKRVCEACGEVVDYRDLARAYESGDGQMVAITDDDIASLPEERSREIEVLEFVPAADVDPMMFDRSYFLEPDSKSSKSYVLLAKTLAETDRMAIVHFTLRNKTRLAALRVKDFGKREVMMVHTLLWPDEIRDPDFPVLDQKVEIKPAELKMAGQVVDSMADDFNPDRYHDTYQEQLQELIDTKLEGGQAFTAEDQPRLLDEPEDVSDLLAKLEASVKARSKANSNVPTPP
notes: The His tag is TEV-cleavable (pMCSG7) and no cleavage is described; also called KuWT
With B2, the “stoichiometry N” value in [3] was 2.

B3: 30 bp dsDNA (dsDNA)
DNA 1: CAGGAGGTGTAGGGAAGGGAATGTTGTCTG
DNA 2: CAGACAACATTCCCTTCCCTACACCTCCTG
As for B3, the equilibrium dissociation constant (Kd) with KuWT [4] amounted to 1.18 ± 0.09 µM. Besides, the binding result with LigD is listed as “binds”.

B4: Mycobacterium tuberculosis Kucore (entire C-terminus removed) (domain or fragment)
chain: MRAIWTGSIAFGLVNVPVKVYSATADHDIRFHQVHAKDNGRIRYKRVCEACGEVVDYRDLARAYESGDGQMVAITDDDIASLPEERSREIEVLEFVPAADVDPMMFDRSYFLEPDSKSSKSYVLLAKTLAETDRMAIVHFTLRNKTRLAALRVKDFGKREVMMVHTLLWPDEIRDPDFPVLDQKVEIKPAELKMAGQVVDSMADDFNPDRYHDTYQEQLQELIDTKLEGGQAFTAEDQ
modifications: in BLI only: biotin (NHS-LC-Biotin) on K19, K37, K45, K117, K120, K127, K154, K158, K184, K188, K193, K226
notes: Ku of M. tuberculosis, UniProt P9WKD9, residues 1-238 (core domain); The His tag is TEV-cleavable (pMCSG7) and no cleavage is described; The protein was not biotinylated for SEC-MALS; also called Ku core domain
Turning to B4, the “stoichiometry N” value in data set [3] turned out to be 2.

B5: Ku_(core) (M. tuberculosis Ku core domain, entire C-terminus removed) (domain or fragment)
chain: MRAIWTGSIAFGLVNVPVKVYSATADHDIRFHQVHAKDNGRIRYKRVCEACGEVVDYRDLARAYESGDGQMVAITDDDIASLPEERSREIEVLEFVPAADVDPMMFDRSYFLEPDSKSSKSYVLLAKTLAETDRMAIVHFTLRNKTRLAALRVKDFGKREVMMVHTLLWPDEIRDPDFPVLDQKVEIKPAELKMAGQVVDSMADDFNPDRYHDTYQEQLQELIDTKLEGGQAFTAEDQ
modifications: biotinylated at multiple sites with NHS-LC-Biotin for BLI only (sites listed in Supplementary Table S3)
B5: in [5], the “stoichiometry N” value worked out at 2. The same molecule registered a Kd in data set [6] of 0.2 µM.

B6: 20 bp dsDNA (dsDNA)
DNA 1: CAGGAAGGGAATGTTGTCTG
DNA 2: CAGACAACATTCCCTTCCTG
For the molecule B6, the binding result with Kucore [7], with Kumin [8], in the data set with KuWT [4] and with LigD was “binds” each time.

B7: 10 bp dsDNA (dsDNA)
DNA 1: CAGGAAGGTG
DNA 2: CACCTTCCTG
In the case of B7, the binding result with Kucore [9], in the data set with Kumin [10] and with KuWT [11] was “no binding” in each case. In addition, in the data set with LigD, the equilibrium dissociation constant (Kd) amounted to 1.1 ± 0.07 µM.

B8: 15 bp dsDNA (dsDNA)
DNA 1: CAGGAAGGGAATGTT
DNA 2: AACATTCCCTTCCTG
Consider B8, for which the dissociation constant Kd with KuWT [4] stood at 1.63 ± 0.3 µM. Besides, in the data set with LigD, the binding result is listed as “binds”.
